Results: patent publication US20220275038A1 (TOKYO MEDICAL UNIVERSITY, published 2022)
Blank lines part the entries; values can stand above or below the molecule they belong to.

How the values were obtained:
[1] = target: CLSP(1-61)-MycHis (N-terminal region of CLSP, amino acid 1-61, C-terminally tagged with MycHis) (human) (UniProt Q9NZT1); assay: cell-based or functional assay
[2] = target: CLSPCOL (hybrid polypeptide of CLSP(1-61), MycHisG and the collagen-homologous region of adiponectin) (human); assay: cell-based or functional assay
[3] = target: human CLSP-MycHis (calmodulin-like skin protein, C-terminally tagged with MycHis) (human) (UniProt Q9NZT1); assay: cell-based or functional assay
[4] = target: T1, apolipoprotein E4 C-terminally tagged with FLAG (overexpressed in F11 cells, immunoprecipitated with FLAG … (human, UniProt P02649 19-317)); assay: pull-down with immunoprecipitated ApoE4-FLAG, immunoblot (FIG. 15 a, b)
T1 construct: also called ApoE4-FLAG; ApoE4; not shown: C-terminal FLAG tag
T1 sequence (P02649 19-317 C130R limits assumed): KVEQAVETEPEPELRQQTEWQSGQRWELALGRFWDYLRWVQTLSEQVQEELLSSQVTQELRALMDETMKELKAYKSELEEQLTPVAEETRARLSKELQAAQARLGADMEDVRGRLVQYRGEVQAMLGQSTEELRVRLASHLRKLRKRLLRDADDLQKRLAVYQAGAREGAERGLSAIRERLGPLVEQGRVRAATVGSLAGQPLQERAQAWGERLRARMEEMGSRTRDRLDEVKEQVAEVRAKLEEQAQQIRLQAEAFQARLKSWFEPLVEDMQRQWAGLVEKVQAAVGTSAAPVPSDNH
Experimental: (a, b) <Apolipoprotein E4 binds to the C-terminal region of CLSP> A schematic illustration of deletion mutants of CLSP is shown in (a). Apolipoprotein E4 (ApoE4) and adiponectin (ADN), C-terminally tagged with FLAG, were overexpressed in F11 neurohybrid cells by transfection. At 24 hours after the transfection, the cell lysates of F11 cells were prepared. For immunoprecipitation of ApoE4-FLAG and ADN-FLAG using the FLAG antibody, 300 μg of cell lysates was used. Recombinant CLSP-MycHis (FL-MH) or C-terminally MycHis-tagged CLSP deletion mutants produced in bacteria were purified. These immunoprecipitates and recombinant proteins were then subjected to SDS-PAGE and immunoblot analysis using the myc and FLAG antibodies (inputs). The ApoE4-FLAG and ADN-FLAG immunoprecipitates were mixed with recombinant CLSP-MycHis (FL-MH) or C-terminally MycHis-tagged CLSP deletion mutants and incubated at 4° C. overnight, followed by exhaustive washing. The pulled-down precipitates were then subjected to SDS-PAGE and immunoblotted using the myc and FLAG antibodies. (c) <CLSP binds to the collagen-homologous region of adiponectin> The collagen-homologous region of adiponectin (ADNCol), N-terminally tagged with 6×His and G(HisG), was produced in bacteria. In addition, CLSP-FLAG was overexpressed in F11 neurohybrid cells by transfection. […]

[5] = target: T2, recombinant human ApoE4 (PeproTech, cat. no. 350-04) (human, UniProt P02649 19-317); assay: plate coated with ApoE4, rising CLSP-HiBiT, chemiluminescence (Nano-Glo HiBiT), Scatchard analysis; ApoE4 on the plate
T2 construct: also called apolipoprotein E4
T2 sequence (P02649 19-317 C130R limits assumed): as above
Experimental: (§1) The dissociation constants (Kd) for the binding between CLSP and adiponectin, and between CLSP and ApoE4 were then measured (FIGS. 8b and c). For this purpose, adiponectin or ApoE4 protein was conjugated to the 96-well plates. Various concentrations of recombinant CLSP C-terminally tagged with HiBiT, a chemiluminescence producing tag, were added to the plates for simultaneous incubation. After washing, the amount of CLSP-HiBiT binding to adiponectin or ApoE4 on the wells was measured. The dissociation constant between adiponectin and CLSP or between ApoE4 and CLSP was measured to be 8.8 or 7.8 pM respectively by Scatchard analysis (FIG. 8c).
(§2) The dissociation constant for the binding between ApoE4 (or adiponectin) and CLSP was measured using Nano-Glo HiBiT Extracellular Detection System (Promega, cat. no.: N2420) in accordance with the instruction. For the coating of recombinant ApoE4 or adiponectin, 100 μl of 50 mM carbonate buffer (pH 9.6) containing 20 pM ApoE4 or adiponectin was incubated overnight at 4° C. in the wells of 96-well plates (Fluorescence-use Black-type Plate H, cat. no.: MS-8596KZ, Sumitomo Bakelite Co., Ltd., Tokyo, Japan). The protein-coated plates were washed three times with 200 μl of PBS. Then, 150 μl of PBS containing 1% skim milk (GIBCO) was added to each well. […] Resulting chemiluminescence was measured for each well using Wallac ARVO™ X5 (Perkin Elmer). […]

[6] = target: T3, human adiponectin (BioVendor, cat. no. RD172029100) (human, UniProt Q15848 19-244, limits assumed); assay: Scatchard analysis; wells coated with 20 pM adiponectin, stepwise CLSP-HiBiT, HiBiT chemiluminescence [plot ADN]
T3 construct: Bought; also called ADN; wild-type adiponectin
T3 sequence: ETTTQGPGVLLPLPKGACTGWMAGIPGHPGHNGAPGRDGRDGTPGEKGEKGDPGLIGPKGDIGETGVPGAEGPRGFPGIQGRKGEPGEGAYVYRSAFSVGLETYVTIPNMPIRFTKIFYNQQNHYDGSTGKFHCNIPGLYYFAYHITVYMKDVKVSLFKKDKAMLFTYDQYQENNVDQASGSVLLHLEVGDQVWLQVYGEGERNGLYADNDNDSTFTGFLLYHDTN
Experimental: (§3) Dissociation constants were calculated by the Scatchard analysis using Prism7 software.
as §1
as §2, with “Japan).” for “Japan). The protein-coated plates were washed three times with 200 μl of PBS. Then, 150 μl of PBS containing 1% skim milk (GIBCO) was added to each well.”

[7] = target: T3, human adiponectin (BioVendor, cat. no. …); assay: plate coated with adiponectin, rising CLSP-HiBiT, chemiluminescence (Nano-Glo HiBiT), Scatchard analysis; adiponectin on the plate
Experimental: as §1, §2

[8] = target: T2, recombinant human ApoE4 (PeproTech, …); assay: Scatchard analysis; wells coated with 20 pM recombinant ApoE4, stepwise CLSP-HiBiT, HiBiT chemiluminescence [plot ApoE4]
Experimental: as §3, §1
as §2, with “Japan).” for “Japan). The protein-coated plates were washed three times with 200 μl of PBS. Then, 150 μl of PBS containing 1% skim milk (GIBCO) was added to each well.”

[9] = target: T1, apolipoprotein E4 C-terminally tagged …; assay: pull-down of purified MycHis-tagged CLSP proteins with ApoE4-FLAG immunoprecipitated on M2 agarose beads, WB anti-myc [ApoE4 beads]

Molecule: calreticulin
- inhibition of the cell death-suppressing activity of CLSP1-61 (cell death assay, FIG. 19) [1]: 10 fold amount
- inhibition of the cell death-suppressing activity of 100 pM CLSPCOL; concentration at which inhibition began [2]: 1 nM
- inhibition of the CLSP-mediated protection of V642I-APP-induced neuronal death; concentration for complete inhibition of 10 nM CLSP [3]: 50 nM

Molecule: recombinant GST-human 14-3-3σ (from UniProt P31947 1-248)
- inhibition of the cell death-suppressing activity of CLSP1-61 (cell death assay, FIG. 19) [1]: 10 fold amount
- inhibition of the CLSP-mediated protection of V642I-APP-induced neuronal death; concentration at which inhibition of 10 nM CLSP began [3]: 10 nM
- inhibition of the CLSP-mediated protection of V642I-APP-induced neuronal death; concentration for complete inhibition of 10 nM CLSP [3]: 20 nM

B2: CLSP-HiBiT (recombinant CLSP C-terminally tagged with HiBiT) (ligand)
chain: MAGELTPEEEAQYKKAFSAVDTDGNGTINAQELGAALKATGKNLSEAQLRKLISEVDSDGDGEISFQEFLTAAKKARAGLEDLQVAFRAFDQDGDGHITVDELRRAMAGLGQPLPQEELDAMIREADVDQDGRVNYEEFARMLAQEVSGWRLFKKIS
notes: HiBiT oligonucleotides were put into pGEX-2T-CLSP at the SmaI-EcoRI site; Made 'in the same way' as CLSP-MycHis (GST fusion, thrombin release); also called GST-CLSP-HiBiT (precursor)
- Kd [5]: 7.8 pM
- Kd [6]: 7.8 pM
- Kd [7]: 8.8 pM
- Kd [8]: 8.8 pM

Other lines, results leading:

- binding result [4]: no binding
B1: CLSP(1-61)-MycHis (N-terminal region of CLSP, amino acid 1-61, C-terminally tagged with MycHis) (ligand)
chain: MAGELTPEEEAQYKKAFSAVDTDGNGTINAQELGAALKATGKNLSEAQLRKLISEVDSDGD
notes: Made in bacteria; not shown: C-terminal MycHis tag

- binding result [9]: no binding
B3: CLSP deletion mutant EHR, C-terminally tagged with MycHis (consists of only the endogenous humanin-homogenous region) (peptide)
chain: TGKNLSEAQLRKLISEVDSDGD
notes: also called mutants consisting of only EHR; not shown: C-terminal MycHis tag
